Measured values published in US10465005B2, “JAML specific binding agents, antibodies, and uses related thereto” (Emory University, priority 2011, dated 2019).
“Also recorded” adds a separate entry of the source.

Legend:
[1] = test system: CHO-JAML and CHO-CAR cells; assay: CHO-JAML / CHO-CAR cell aggregation assay; type: cell-based; conditions: for aggregation of mixed CHO-CAR and CHO-JAML cultures (number and size of clusters): antibodies 30 μg/ml, 1 hour at 37° C., FIG. 1D
Description: FIG. 1D. CHO-K1 cells stably transfected with either JAML (CHO-JAML) or CAR (CHO-CAR) proteins were allowed to aggregate (1 hour at 37° C. on a shaker at 50 RPM) separately (1×10^6 cells/BSA coated 3 ml Petri dish), or as a mix (5×10^5 each cell type/dish), in the absence or presence of anti-JAML monoclonal antibodies DW100, DW55 and DW216 (30 μg/ml). The number of clusters (left) and the area of the clusters (right) were quantified in 7 randomly chosen fields using light microscopy. The results are representative of four independent experiments. CHO-CAR and CHO-JAML in mixed cultures formed large aggregates.
Because certain antibodies recognize the membrane distal domain of JAML, their ability to inhibit binding to CAR was tested. By ELISA, the levels of soluble CAR-GST bound to immobilized sJAML-His preincubated with anti JAML antibodies was measured. […] Thus, these antibodies recognize three different epitopes on JAML and that both DW100 and DW55 bind epitopes close to the JAML binding site. Using a cell aggregation assay, the possibility that DW100 could inhibit the binding of JAML to CAR expressed on the surface of cells was examined. […] This again confirms previously described JAML binding to CAR, as well as the specificity of DW100 (blocking) and DW216 (non-blocking) Abs to JAML.

[2] = test system: T84 epithelial monolayers; assay: Scratch wound closure of epithelial monolayers; type: cell-based, human; conditions: for epithelial wound closure: T84 scratch wound, monitored over 72 h, FIG. 10
Description: T84 epithelial monolayers grown to confluence were wounded by introduction of a single linear scratch wound using a 20-μl plastic pipette tip. Wound closure was monitored over 72 h in the absence or presence of PMN or sJAML. The scale bar is 10 μm.
Whether JAML binding to CAR would affect epithelial wound restitution was investigated. […] If soluble JAML interactions with CAR play a role, the effect could be reversed with the addition of blocking DW100 mAb.
Cell grown in 24-well tissue culture plates received one linear wound using a 20-μl plastic pipette tip attached to low suction. Wounded monolayers were washed once with PBS to remove detached cells and debris, and incubated with the appropriate stimulus added to the medium. The rate of migration was measured by determining the wound area immediately after wounding (t=0) and at the indicated time points. The data are presented as the area of the wound at each time point normalized to t=0. The experiments were carried out in triplicates per condition, and the data shown are representative of 4 independent experiments.

[3] = test system: T84 and CACO-2 cells; assay: Cell adhesion assay, PMN and HL60 to epithelial monolayers; type: cell-based, human; conditions: sJAML-His and mAbs 30 μg/ml, 1 hour
Description: PMN cells were pre-labeled with CellTracker™ Green (CMFDA). Labeled cells (2.5×10^5/well) were allowed to adhere for 1 hour to T84 (white bars) and CACO-2 (black bars) cells grown to confluency in 24 well tissue culture microtiter wells, in the absence (NoTx) or presence of soluble JAML (sJAML-His), 30 μg/ml), anti-JAML monoclonal antibodies DW100 and DW216 (30 μg/ml), or alternatively to stable CACO-2 cells lacking CAR. Non-adherent HL60 cells and PMN were removed by 3 washes with HBSS. Adherent cells were harvested by treating the monolayers with trypsin, followed by lysis with 0.1% Triton 100×. Fluorescence intensity was measured using FluoStar Galaxy plate reader at excitation/emission wavelengths of 485/535 nm.
JAML-CAR interactions are involved in PMN adhesion to epithelium. […] Indeed adhesion of both HL-60 cells and PMNs to epithelium is partly dependent upon JAML-CAR binding. […] HL-60 cells and PMNs also adhered to a lesser degree to Caco2 cells where the expression of CAR was stably knocked down, confirming the specificity of the adhesion events to JAML-CAR interactions.
Epithelial cells (T84/Caco-2) were seeded on 24-well plates (10^6 cells/well) and cultured until they reached confluence. […] Fluorescence intensity was measured using FluoStar Galaxy plate reader at excitation/emission wavelengths of 485/535 nm. […]

[4] = test system: T84 intestinal epithelial cells; assay: EdU incorporation cell proliferation at wound edge; type: cell-based, human; conditions: FIG. 10C,D
Description: FIG. 10C. Epithelial monolayers were wounded as described above and cell proliferation at the wound edge after 24 hours incubation with either sJAML or sSIRPa (30 μg/ml), with or without the addition of DW100 mAb was assessed by EdU incorporation assay. Data presented as proliferating cells (positively stained with EdU) out of all cells in the field multiplied by 100. Cells were counted in 7 randomly selected fields in 4 independent experiments.
JAML binding CAR to inhibit epithelial cell proliferation was investigated as a possible mechanism for impeding wound healing.
Cell proliferation was assessed in […] (EdU) incorporation assay, by using a Click-iT EdU Alexa 488 cell proliferation kit (Invitrogen). Cell apoptosis was assessed by staining with sulforhodamine labeled caspase inhibitor SR-VAD-FMK from APO LOGIX
Sulforhodamine Caspase Detection kit (Cell Technology). Scratch wounded or confluent cells were subjected to treatment as indicated in the figure were incubated for 24 hrs at 370 C before addition of EdU or APO LOGIX Sulforhodamine Caspase Detection kits. At least 5 random fields per each condition were analyzed, the data are presented as % proliferating/apoptotic cells out of total cells in the field.

Row | Molecule | aggregation of CHO-JAML cells alone (JAML-JAML) ([1]; FIG. 1) | aggregation of mixed CHO-CAR and CHO-JAML cultures (number and size of clusters) [1] | reversal of PMN or sJAML inhibition of wound closure ([2]; T84, mAb 30 μg/ml, FIG. 10A,B) | adhesion of HL60 cells and PMN to epithelial monolayer ([3]; FIG. 8) | block of soluble JAML inhibition of proliferation ([4]; EdU) | epithelial wound closure [2] | epithelial wound closure ([2]; listed as Soluble JAML) | adhesion of HL60 cells and PMN to epithelial monolayer ([3]; FIG. 8, listed as soluble JAML) | proliferation of epithelial cells at wound edge (EdU) ([4]; 30 μg/ml, 24 hours)
1 | DW100: monoclonal anti-human JAML antibody (IgG1,κ), hybridoma ATCC PTA-13051; VH SEQ ID NO:19, VL SEQ ID NO:22 (antibody, V domains shown) VH: DVQLVESGAELVRPGASKLSCKALAYTFTDYEMHWVKQTPVHGLEWIGIIHPGSGGTVYNQKFKGKATLTADKSSSTAYMELSSLTSEDSTVYYCTRRRYYGSSYNWYFDVWGAGN VL: VLTQSPASLAASVGETVTITCRASENIYYSLAWYQQKQGKSPQLLIYNANSLEDGVPSRFSGSGSGTQYSLKINSMQPEDTATYFCEQTYDVPLTFGAGTKLEL | could not be blocked with DW100 mAb | could be blocked with DW100; also recorded: significantly inhibited aggregation of mixed cultures of CHO transfectants; also recorded: significantly decreased both the size and the number of formed clusters | reversed this inhibition; also recorded: significantly improved wound restitution | decreased adhesion of HL60 cells and PMN to epithelial monolayer; also recorded: significantly decreased | blocked by addition of DW100 | – | – | – | –
2 | sJAML: recombinant soluble fragment of JAML.D1D2 tagged with 10 His residues at the C-terminus (protein) LNDLNVSPPELTVHVGDSALMGCVFQSTEDKCIFKIDWTLSPGEHAKDEYVLYYYSNLSVPIGRFQNRVHLMGDILCNDGSLLLQDVQEADQGTYICEIRLKGESQVFKKAVVLHVLPEEPKELMVHVGGLIQMGCVFQSTEVKHVTKVEWIFSGRRAKEEIVFRYYHKLRMSVEYSQSWGHFQNRVNLVGDIFRNDGSIMLQGVRESDGGNYTCSIHLGNLVFKKTIVLHVSPEEPRTL | – | blocked | – | – | – | inhibited wound closure | delayed both epithelial barrier recovery and wound restitution | decreased adhesion of HL60 cells and PMN to epithelial monolayer; also recorded: significantly decreased | significantly inhibits proliferation of T84 intestinal epithelial cells
